Assays:
CoV-2 Nsp13 helicase = CoV-2 Nsp13 helicase (SARS-CoV-2, UniProt P0DTD1 5325-5925); experiment: fluorescence anisotropy; 10-42 C; no significant change; conditions: protein: recombinant; tags: N-terminal SUMO tag removed with SUMO protease; label: 3'-6-FAM on strand 1; 5' overhang 22 nt, 21 bp
CoV-2 N (nucleocapsid) = CoV-2 N (nucleocapsid) (SARS-CoV-2, UniProt P0DTC9 1-419); experiment: fluorescence anisotropy; 50 mM NaCl, no Mg2+, no ATP; FP: 25 mM Tris-HCl pH 7.6, 50 mM NaCl, no Mg2+, 5 nM labelled nucleic acid, 5 min; temperature not stated; Kd from Hill fits (values not in the text); conditions: protein: recombinant; tags: His6; chain copies: 2; label: 3'-6-FAM on strand 1; 5' overhang 22 nt, 21 bp

B1: 5'D/D-OhS22D21 (dsDNA)
DNA 1: CTGTAGGAATGTGAAATAAAAACGATGTTTTATTTACATTGTA
DNA 2: TACAATGTAAATAAAACATCG
- binding result (CoV-2 Nsp13 helicase): binds
- binding result (CoV-2 N (nucleocapsid)): binds
